Laboratory results: patent US20120213763A1 (COUNCIL OF SCIENTIFIC AND INDUSTRIAL RESEARCH, published 2012)
“And” between values parts separate entries of the source, which are not always exact repeats. Equal entries are not always repeated.

What was measured:
[1] = biological target: T1, PEGylated SK D96C (SEQ ID NO 31)
T1 chain: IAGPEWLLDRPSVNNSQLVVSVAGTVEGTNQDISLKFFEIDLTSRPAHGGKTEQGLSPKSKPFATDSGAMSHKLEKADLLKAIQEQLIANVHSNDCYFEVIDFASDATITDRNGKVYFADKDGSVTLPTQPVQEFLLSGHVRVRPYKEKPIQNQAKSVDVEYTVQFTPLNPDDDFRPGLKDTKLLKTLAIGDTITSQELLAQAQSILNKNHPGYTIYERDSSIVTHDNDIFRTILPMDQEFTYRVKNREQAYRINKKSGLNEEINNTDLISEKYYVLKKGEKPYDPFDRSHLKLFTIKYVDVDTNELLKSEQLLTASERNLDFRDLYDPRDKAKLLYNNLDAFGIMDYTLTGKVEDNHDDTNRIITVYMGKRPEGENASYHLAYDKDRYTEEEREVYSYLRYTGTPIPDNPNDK

[2] = biological target: T2, PEGylated SK C-383 Cys (SEQ ID NO 492), Cys at C + 1 position of SK 1-383, G3
T2 chain: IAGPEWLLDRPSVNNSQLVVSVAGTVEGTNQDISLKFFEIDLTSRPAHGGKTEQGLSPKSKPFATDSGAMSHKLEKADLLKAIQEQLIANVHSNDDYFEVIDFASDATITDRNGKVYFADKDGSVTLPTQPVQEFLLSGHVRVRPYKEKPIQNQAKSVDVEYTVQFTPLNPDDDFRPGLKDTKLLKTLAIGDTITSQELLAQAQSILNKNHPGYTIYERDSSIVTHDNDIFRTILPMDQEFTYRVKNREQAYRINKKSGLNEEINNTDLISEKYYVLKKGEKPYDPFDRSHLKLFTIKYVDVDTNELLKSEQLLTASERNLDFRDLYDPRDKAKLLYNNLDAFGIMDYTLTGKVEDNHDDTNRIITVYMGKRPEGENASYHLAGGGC

[3] = biological target: T3, PEGylated SK D173C (SEQ ID NO 39)
T3 chain: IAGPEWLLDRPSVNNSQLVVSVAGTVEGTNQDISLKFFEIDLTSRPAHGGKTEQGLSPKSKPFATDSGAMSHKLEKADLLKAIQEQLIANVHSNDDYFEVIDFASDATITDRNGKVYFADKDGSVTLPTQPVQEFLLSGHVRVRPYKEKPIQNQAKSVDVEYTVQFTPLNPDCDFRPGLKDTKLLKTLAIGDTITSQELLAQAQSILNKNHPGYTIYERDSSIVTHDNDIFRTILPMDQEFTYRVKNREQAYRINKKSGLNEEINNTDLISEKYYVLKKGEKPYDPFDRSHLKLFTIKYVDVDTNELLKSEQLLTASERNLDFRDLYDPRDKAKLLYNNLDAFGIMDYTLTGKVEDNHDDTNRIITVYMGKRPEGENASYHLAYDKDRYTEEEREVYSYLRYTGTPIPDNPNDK

[4] = biological target: T4, bi-pegylated NC 1-414 (SEQ ID NO 491), Cys at N - 1 and at C + 1 position in SK
T4 chain: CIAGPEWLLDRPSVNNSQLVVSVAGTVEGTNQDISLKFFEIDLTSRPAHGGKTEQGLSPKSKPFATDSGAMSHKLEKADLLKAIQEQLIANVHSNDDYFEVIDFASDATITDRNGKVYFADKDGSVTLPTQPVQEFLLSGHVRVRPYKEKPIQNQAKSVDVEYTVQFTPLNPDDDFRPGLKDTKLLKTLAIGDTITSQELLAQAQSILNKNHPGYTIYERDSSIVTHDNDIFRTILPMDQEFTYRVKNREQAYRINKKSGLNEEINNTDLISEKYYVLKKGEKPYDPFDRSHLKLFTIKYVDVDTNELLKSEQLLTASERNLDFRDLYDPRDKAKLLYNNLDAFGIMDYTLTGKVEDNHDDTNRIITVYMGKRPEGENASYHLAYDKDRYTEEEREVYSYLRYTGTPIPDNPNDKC

[5] = biological target: PEG Variants of SEQ ID NO 23 (PEGylated Cysteine variants of fibrin domain fusion form of SK)
[6] = biological target: T5, native streptokinase nSK (1-414) ATCC 12449 (SEQ ID NO 1)
T5 chain: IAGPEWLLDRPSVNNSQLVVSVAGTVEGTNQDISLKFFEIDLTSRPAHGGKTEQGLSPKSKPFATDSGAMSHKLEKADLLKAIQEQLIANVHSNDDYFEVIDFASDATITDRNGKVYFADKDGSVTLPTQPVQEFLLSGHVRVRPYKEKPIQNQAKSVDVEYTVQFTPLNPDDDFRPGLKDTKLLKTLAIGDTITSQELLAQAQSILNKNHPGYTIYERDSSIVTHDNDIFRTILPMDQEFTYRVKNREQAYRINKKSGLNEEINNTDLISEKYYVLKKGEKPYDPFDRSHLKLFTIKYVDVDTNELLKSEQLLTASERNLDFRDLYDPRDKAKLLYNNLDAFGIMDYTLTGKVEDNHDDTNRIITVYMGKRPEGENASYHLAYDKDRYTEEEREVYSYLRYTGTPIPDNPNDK

[7] = biological target: T6, PEGylated SK K121C (SEQ ID NO 35)
T6 chain: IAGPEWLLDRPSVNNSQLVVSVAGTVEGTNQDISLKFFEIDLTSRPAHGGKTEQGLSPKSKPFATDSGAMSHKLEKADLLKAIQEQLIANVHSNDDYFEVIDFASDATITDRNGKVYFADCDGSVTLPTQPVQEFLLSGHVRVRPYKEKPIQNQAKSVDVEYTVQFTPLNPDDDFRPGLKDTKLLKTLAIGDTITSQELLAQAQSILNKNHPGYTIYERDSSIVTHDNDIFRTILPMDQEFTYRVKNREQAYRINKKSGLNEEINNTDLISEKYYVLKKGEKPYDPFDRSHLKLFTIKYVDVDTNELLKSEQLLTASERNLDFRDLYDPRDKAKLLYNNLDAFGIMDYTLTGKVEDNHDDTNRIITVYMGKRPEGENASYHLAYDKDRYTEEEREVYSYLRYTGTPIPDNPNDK

B1: human plasminogen (HPG) (protein)
chain: KVYLSECKTGNGKNYRGTMSKTKNGITCQKWSSTSPHRPRFSPATHPSEGLEENYCRNPDNDPQGPWCYTTDPEKRYDYCDILECEEECMHCSGENYDGKISKTMSGLECQAWDSQSPHAHGYIPSKFPNKNLKKNYCRNPDRELRPWCFTTDPNKRWELCDIPRCTTPPPSSGPTYQCLKGTGENYRGNVAVTVSGHTCQHWSAQTPHTHNRTPENFPCKNLDENYCRNPDGKRAPWCHTTNSQVRWEYCKIPSCDSSPVSTEQLAPTAPPELTPVVQDCYHGDGQSYRGTSSTTTTGKKCQSWSSMTPHRHQKTPENYPNAGLTMNYCRNPDADKGPWCFTTDPSVRWEYCNLKKCSGTEASVVAPPPVVLLPDVETPSEEDCMFGNGKGYRGKRATTVTGTPCQDWAAQEPHRHSIFTPETNPRAGLEKNYCRNPDGDVGGPWCYTTNPRKLYDYCDVPQCAAPSFDCGKPQVEPKKCPGRVVGGCVAHPHSWPWQVSLRTRFGMHFCGGTLISPEWVLTAAHCLEKSPRPSSYKVILGAHQEVNLEPHVQEIEVSRLFLEPTRKDIALLKLSSPAVITDKVIPACLPSPNYVVADRTECFITGWGETQGTFGAGLLKEAQLPVIENKVCNRYEFLNGRVQSTELCAGHLAGGTDSCQGDSGGPLVCFEKDKYILQGVTSWGLGCARPNKPGVYVRVSRFVTWIEGVMRNN
Km [1]: 0.5 µM | Km [2]: 0.4 µM | Km [3]: 0.4 µM | Km [4]: 0.42 µM | Km [5]: 0.24 µM and 0.63 µM | Km [6]: 0.4 µM and 0.45 µM | Km [7]: 0.4 µM
